Test results published in US20250277036A1 (POLYGON THERAPEUTICS, published 2025).
Numbering of substitutions follows the chain as printed.

B1: MP08-R3-F08 in the human IgG1 lambda format (antibody, V domains shown)
VH: EVQLVESGGSLVKPGGSLRLSCAASGFTFSNNAMNWVRQAPGKGLEWISDISGSSRYIGYADFVKGRFTISRDNAKNSLYLQMNSLRAEDTAVYYCVRSSNYYDYNADAMDVWGRGTLVTVSS
VL: QSVLTQPASVSGSPGQSITISCAGTSSDVGGNSYVSWYQQHPGKAPKLMIYSDSSRPSGVSNRFSGSKSGNTASLTISGLQAEDEADYYCSSYTQYSTRVFGGGTKLAVLG
notes: Whole human IgG1 lambda made in ExpiCHO cells; also called hMP08-R3-F08; MP08-R3-F08 human IgG1 clone; copies: 2 + 2
B2: MP08-R3-C11 in the human IgG1 lambda format (antibody, V domains shown)
VH: EVQLVESGGSLVKPGGSLRLSCAASGFTFSNYDMNWVRQAPGKGLEWISDISGSSSYIDYADFVKGRFTISRDNAKNSLYLQMNSLRAEDTAVYYCVRSSYYSGSGMDVWGRGTLVTVSS
VL: QSVLTQPASVSGSPGQSITISCAGTSSDVGGGSSVSWYQQHPGKAPKLMIYQDSYRPSGVSNRFSGSKSGNTASLTISGLQAEDEADYYCSSYTYYSTRVFGGGTKLAVL
notes: Whole human IgG1 lambda made in ExpiCHO cells; also called hMP08-R3-C11; MP08-R3-C11 human IgG1 clone
B3: MP09-R3-D03 in the human IgG1 lambda format (antibody, V domains shown)
VH: EVQLVESGGSLVKPGGSLRLSCAASGFTFSNYYMNWVRQAPGKGLEWISSISGSSRYIYYADFVKGRFTISRDNAKNSLYLQMNSLRAEDTAVYYCVRSSGSYFGNAMDVWGRGTLVTVSS
VL: B2 VL with G32Y, S33Y, Q52Y, Y55S, Y93D, Y95S
notes: Whole human IgG1 lambda made in ExpiCHO cells; also called hMP09-R3-D03; MP09-R3-D03 human IgG1 clone
B4: MP08-R3-F08 in the rat IgG2b kappa format (antibody, V domains shown)
VH: B1 VH
VL: B2 VL with G32N, S34Y, Q52S, Y55S, Y95Q
notes: Same VH and VL cloned into a rat IgG2b kappa format; also called MP08-R3-F08 rat IgG2b
B5: MP08-R3-C11 in the rat IgG2b kappa format (antibody, V domains shown)
VH: B2 VH
VL: B2 VL
notes: Same VH and VL cloned into a rat IgG2b kappa format; also called MP08-R3-C11 rat IgG2b
B6: MP09-R3-D03 in the rat IgG2b kappa format (antibody, V domains shown)
VH: B3 VH
VL: B2 VL with G32Y, S33Y, Q52Y, Y55S, Y93D, Y95S
notes: Same VH and VL cloned into a rat IgG2b kappa format; also called MP09-R3-D03 rat IgG2b; MP09-R3-D3

What follows are binders tested against T1, Biotinylated recombinant human CD8α (Fisher Scientific #17196181) (human, UniProt P01732 22-182, biotinylated (site not stated)) (assay: dose-response ELISA on biotinylated human CD8α captured on streptavidin, human IgG1 format).
T1 construct: Bought protein; also called hCD8α; recombinant human CD8α protein
T1 sequence (P01732 22-182 limits assumed): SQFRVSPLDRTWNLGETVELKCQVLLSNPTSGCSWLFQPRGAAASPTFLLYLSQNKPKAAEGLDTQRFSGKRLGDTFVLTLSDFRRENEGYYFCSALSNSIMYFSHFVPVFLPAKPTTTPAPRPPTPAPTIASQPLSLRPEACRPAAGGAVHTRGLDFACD
Method: (§1) […] of streptavidin were coated on Nunc Maxisorp 96-well plates (ThermoFisher #442404) at 100 μL/well and incubated 1 hour at room temperature. Biotinylated human CD8α (Fisher Scientific #17196181) and mouse CD8α (Sino biological #50389-M08H-B) were added at 0.5 μg/mL in 100 μL/well and incubated overnight at 4° C. Human CD4 (Sino biological #10400-H08H) was coated passively at 1 μg/mL in 100 μL/well and incubated overnight at 4° C. Plates were then blocked using 200 μL of PBS containing 4% skimmed milk for 1 hour at room temperature.
(§2) The three antibody clones (in both human IgG1 lambda and rat IgG2b kappa formats) were diluted in milk-PBS and tested at different concentrations (75, 25, 8.3, 2.8, 0.93, 0.31, 0.103, 0.034, 0.011, 0.0038, 0.0013 and 0.00042 μg/mL). 100 μL/well were incubated 1 hour at room temperature.
(§3) TMB ((3,3′,5,5′ tetramethylbenzidine) Thermo Scientific #12617087) was added for a 3-minute incubation. Reaction was stopped with H₂SO₄ and absorbance at 450 nm was read on a microplate reader (Pherastar FS, BMG Labtech).
With B1 the EC50 was 0.28 nM.
B2 was tested, and the EC50 was 2.4 nM.
B3 showed an EC50 of 2 nM.

What follows are binders tested against T2, Biotinylated recombinant mouse CD8α (Sino biological #50389-M08H-B) (mouse, UniProt P01731 28-196, biotinylated (site not stated)) (assay: dose-response ELISA, human IgG1 format).
T2 sequence (P01731 28-196 limits assumed, stated change not applied): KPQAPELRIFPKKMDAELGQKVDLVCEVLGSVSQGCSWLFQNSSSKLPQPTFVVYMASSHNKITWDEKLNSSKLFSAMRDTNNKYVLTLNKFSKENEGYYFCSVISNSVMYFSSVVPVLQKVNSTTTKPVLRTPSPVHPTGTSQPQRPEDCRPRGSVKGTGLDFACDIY
Method: as §1, §2, §3
B1: no binding (tested: 75 µg/mL (highest concentration tested)).
B2: no binding (tested: 75 µg/mL (highest concentration tested)).
B3: no binding (tested: 75 µg/mL (highest concentration tested)).

The binders below were run against T2, Biotinylated recombinant mouse CD8α … (assay: dose-response ELISA, rat IgG2b format).
Method: as §1, §2, §3
B4: no binding (tested: 75 µg/mL (highest concentration tested)).
B5: no binding (tested: 75 µg/mL (highest concentration tested)).
B6: no binding (tested: 75 µg/mL (highest concentration tested)).

These binders were tested against T3, Recombinant human CD4 (Sino biological #10400-H08H) (human, UniProt P01730 26-390) (assay: dose-response ELISA on coated human CD4, rat IgG2b format).
Method: as §1, §2, §3
B4: no binding (tested: 75 µg/mL (highest concentration tested)).
B5: no binding (tested: 75 µg/mL (highest concentration tested)).
B6: no binding (tested: 75 µg/mL (highest concentration tested)).

These binders were tested against T1, Biotinylated recombinant human CD8α … (assay: dose-response ELISA on biotinylated human CD8α captured on streptavidin, rat IgG2b format).
Method: as §1, §2, §3
Work on B4 yielded an EC50 of 0.2 nM.
For B5, the EC50 was 0.48 nM.
Binder B6 has an EC50 of 0.99 nM.

Each binder was assayed against T3, Recombinant human CD4 (Sino biological …) (assay: dose-response ELISA on coated human CD4, human IgG1 format).
Method: as §1, §2, §3
B1: no binding (tested: 75 µg/mL (highest concentration tested)).
B2: no binding (tested: 75 µg/mL (highest concentration tested)).
B3: no binding (tested: 75 µg/mL (highest concentration tested)).
